The chains are these.
B1: 14-3-3ε protein (mouse, endogenous in MA-10 mouse Leydig tumor cells) (other, UniProt P62259 1-255, looked up)
chain: MDDREDLVYQAKLAEQAERYDEMVESMKKVAGMDVELTVEERNLLSVAYKNVIGARRASWRIISSIEQKEENKGGEDKLKMIREYRQMVETELKLICCDILDVLDKHLIPAANTGESKVFYYKMKGDYHRYLAEFATGNDRKEAAENSLVAYKAASDIAMTELPPTHPIRLGLALNFSVFYYEILNSPDRACRLAKAAFDDAIAELDTLSEESYKDSTLIMQLLRDNLTLWTSDMQGDGEEQNKEALQDVEDENQ
notes: whole, on cells; Endogenous intracellular protein, detected in fixed cells (Duolink) or cell lysates (co-IP); also called YWHAE gene product; mitochondrial import stimulating factor
B2: 14-3-3ε protein (human, endogenous in NCL-H295R adrenocortical cells) (other, UniProt P62258 1-255, looked up)
chain: B1 chain
notes: whole, on cells; Endogenous protein
B3: 14-3-3ε protein (rat, endogenous in testes sections of Sprague-Dawley rats) (other, UniProt P62260 1-255, looked up)
chain: B1 chain
notes: whole, on cells; Endogenous protein in tissue sections
B4: TAT-VDAC1 fusion peptide S167 (TVS167) (peptide)
peptide: YGRKKRRQRRRGSKSRVTQSNFAVG
notes: A FAM-labelled form was used only to show cell penetration; also called TAT-VDAC1 Ser167; TV167

Experiment [1] has as its target T1, VDAC1 protein (mouse, endogenous in MA-10 cells) (mouse, UniProt Q60932 14-296).
T1 construct: Endogenous protein of the outer mitochondrial membrane in MA-10 cells; also called voltage-dependent anion-selective channel protein 1; mVDAC1
The experiment can be described thus: Duolink in cell IP in MA-10 cells (figure legend).

Experiment [2] concerns the target T2, translocator protein (TSPO), mouse, endogenous in MA-10 cells (mouse, UniProt P50637 1-169).
T2 construct: whole, on cells; Endogenous outer mitochondrial membrane protein
In words: Duolink in cell IP in MA-10 cells, signal/cell ratio, with TVS167 and 8-Br-cAMP (120 min).

Experiment [3] concerns the target T3, VDAC1 protein (human, endogenous in NCL-H295R adrenocortical cells) (human, UniProt P21796 2-283).
T3 construct: Endogenous protein
In words: Duolink assay in human adrenocortical cell line (figure legend).

Experiment [4] deals with T4, VDAC1 protein (rat, endogenous in testes sections of Sprague-Dawley rats) (rat, UniProt Q9Z2L0 1-283).
T4 construct: Endogenous protein in tissue sections
T4 sequence (Q9Z2L0 whole entry): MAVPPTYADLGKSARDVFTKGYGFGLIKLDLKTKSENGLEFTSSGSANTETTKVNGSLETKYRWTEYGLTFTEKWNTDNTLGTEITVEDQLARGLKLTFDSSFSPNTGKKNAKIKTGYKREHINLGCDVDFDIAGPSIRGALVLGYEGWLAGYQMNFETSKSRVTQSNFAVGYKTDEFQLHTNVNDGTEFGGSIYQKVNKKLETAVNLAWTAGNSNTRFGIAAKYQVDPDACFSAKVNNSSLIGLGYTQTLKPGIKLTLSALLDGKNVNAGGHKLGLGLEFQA
The experiment can be described thus: Duolink assay on rat testes sections (figure legend).

The target of experiment [5] is B1. The experiment can be described thus: Duolink in cell IP in MA-10 cells, competition with endogenous VDAC1, 250 nM peptide.

T2 sequence (P50637 whole entry): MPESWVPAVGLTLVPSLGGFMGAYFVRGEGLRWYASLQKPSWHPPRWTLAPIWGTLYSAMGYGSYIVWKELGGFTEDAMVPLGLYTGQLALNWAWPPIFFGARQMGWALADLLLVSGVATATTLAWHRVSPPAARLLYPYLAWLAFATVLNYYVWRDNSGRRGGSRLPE
T1 sequence (Q60932 14-296): as the sequence (Q9Z2L0 whole entry) above
T3 sequence (P21796 2-283 limits assumed, stated change not applied): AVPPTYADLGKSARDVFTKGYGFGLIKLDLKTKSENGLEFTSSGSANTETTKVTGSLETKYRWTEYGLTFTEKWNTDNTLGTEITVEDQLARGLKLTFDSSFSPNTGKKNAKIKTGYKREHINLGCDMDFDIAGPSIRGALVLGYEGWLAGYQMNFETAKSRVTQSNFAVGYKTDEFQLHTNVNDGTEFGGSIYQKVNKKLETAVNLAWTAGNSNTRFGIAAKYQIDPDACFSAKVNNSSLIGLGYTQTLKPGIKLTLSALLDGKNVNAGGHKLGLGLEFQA

Consider B1, for which, in experiment [1], the binding result is recorded as “binds”. In addition, the “fold increase of interactions in the presence of TVS167 against untreated control” value in experiment [2] turned out to be 1.6 fold. With B2, the binding result in experiment [3] is “binds”. In the case of B3, the binding result in experiment [4] is “binds”. For the molecule YGRKKRRQRRRGKLDLKTKSENGLE (also called TAT-VDAC1 Ser35) [TAT-VDAC1 fusion peptide S35 (TVS35)], in experiment [5], the binding result is listed as “binds”. Turning to YGRKKRRQRRRGKLDLKTKGENGLE (also called TVS35G) [TAT-VDAC1 Gly35 (TVG35)], the binding result in experiment [5] was “binds”. Same read-out and setting: the same measure for B4: “binds”. On the same count and under the same terms, the same measure for YGRKKRRQRRRGSKSRVTQGNFAVG (also called TVS167G) [TAT-VDAC1 Gly167 (TVG167)]: “binds”.

For the origin of these results see patent publication US20160108087A1 (ROYAL INSTITUTION FOR THE ADVANCEMENT OF LEARNING MCGILL …, published 2016).
